The source of these data is PMC8022333 (The FEBS journal, 2018).

The data set concerns the molecule itself. Briefly: crystal structure.

B1: vimentin coil 1B (residues 153–238) (domain or fragment)
chain: not shown
The term stoichiometry N denotes the number of molecules, sites or subunits per partner or assembly. B1: the “stoichiometry N” value was found to be 8.
